This is an account of results in patent US20090117640A1.

Common to all, as to assay: cell-based or functional assay
One test deals with hGH mutant Q141N (human) (UniProt P01241).
The target in test [1] is Human growth hormone (human) (UniProt P01241).
In the next test the target is hGH mutant Q40N (human) (UniProt P01241).

Numbering of substitutions follows the chain as printed. Names and notes keep the numbering of the source. A value given as a limit tells only on which side of the number the result lay.

Sequence of Human growth hormone (human) (P01241 27-217 limits assumed): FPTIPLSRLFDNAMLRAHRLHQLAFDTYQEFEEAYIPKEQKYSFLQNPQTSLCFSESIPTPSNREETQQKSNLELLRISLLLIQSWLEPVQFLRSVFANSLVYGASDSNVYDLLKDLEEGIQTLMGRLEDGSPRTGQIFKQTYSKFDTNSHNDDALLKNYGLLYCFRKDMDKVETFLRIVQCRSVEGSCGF
Sequence of hGH mutant Q141N (human) (P01241 27-217 Q167N): as the sequence (P01241 27-217 limits assumed) above, with Q141N counted along it
Sequence of hGH mutant Q40N (human) (P01241 27-217 Q66N): as the sequence (P01241 27-217 limits assumed) above, with Q40N counted along it

B1: TGase from S. mobaraense (wild type) (enzyme)
chain: DSDDRVTPPAEPLDRMPDPYRPSYGRAETVVNNYIRKWQQVYSHRDGRKQQMTEEQREWLSYGCVGVTWVNSGQYPTNRLAFASFDEDRFKNELKNGRPRSGETRAEFEGRVAKESFDEEKGFQRAREVASVMNRALENAHDESAYLDNLKKELANGNDALRNEDARSPFYSALRNTPSFKERNGGNHDPSRMKAVIYSKHFWSGQDRSSSADKRKYGDPDAFRPAPGTGLVDMSRDRNIPRSPTSPGEGFVNFDYGWFGAQTEADADKTVWTHGNHYHAPNGSLGAMHVYESKFRNWSEGYSDFDRGAYVITFIPKSWNTAPDKVKQGWP
In the case of B1, in the test with hGH mutant Q141N (human), the Gln 40 vs Gln 141 (normalized), Gln 40 share (normalized ratio) was found to be 21 and the HPLC peak area of remaining hGH-Q141N (area (arbitrary units)) came to 1290. In test [1], the About 50% hGH reacted at t=, enzyme 0.07 µM (min (printed in h and min)) came to 75; the Transamination Gln 40 vs Gln 141 (Gln 40 share), CE, enzyme 0.07 µM (share of mono-transamination products) came to 15; the Transamination Gln 40 vs Gln 141 (Gln 141 share), CE, enzyme 0.07 µM (share of mono-transamination products) is 85. For the same molecule, in the test with hGH mutant Q40N (human), the Gln 40 vs Gln 141 (normalized), Gln 141 share (normalized ratio) is 79 and the HPLC peak area of remaining hGH-Q40N (area (arbitrary units)) came out at 519.

B2: Y302R TGase (enzyme)
chain: B1 chain with Y302R
In the case of B2, in test [1], the About 50% hGH reacted at t=, enzyme 0.39 µM is 30 min; the Transamination Gln 40 vs Gln 141 (Gln 40 share), CE, enzyme 0.39 µM (share of mono-transamination products) turned out to be 30; the Transamination Gln 40 vs Gln 141 (Gln 141 share), CE, enzyme 0.39 µM (share of mono-transamination products) was 70.

B3: Y75E TGase (enzyme)
chain: B1 chain with Y75E
In test [1], B3 registered an About 50% hGH reacted at t=, enzyme 3.90 µM below 30 min; a Transamination Gln 40 vs Gln 141 (Gln 40 share), CE, enzyme 3.90 µM (share of mono-transamination products) of 45; a Transamination Gln 40 vs Gln 141 (Gln 141 share), CE, enzyme 3.90 µM (share of mono-transamination products) of 55.

B4: Y75E, Y302R TGase (enzyme)
chain: B1 chain with Y75E, Y302R
In test [1], B4 showed an About 50% hGH reacted at t=, enzyme 7.20 µM (min (printed in h and min)) of 90; a Transamination Gln 40 vs Gln 141 (Gln 40 share), CE, enzyme 7.20 µM (share of mono-transamination products) of 65; a Transamination Gln 40 vs Gln 141 (Gln 141 share), CE, enzyme 7.20 µM (share of mono-transamination products) of 35.

B5: TGase from Streptoverticillium ladakanum (enzyme)
chain: DSDERVTPPAEPLDRMPDPYRPSYGRAETIVNNYIRKWQQVYSHRDGRKQQMTEEQREWLSYGCVGVTWVNSGQYPTNRLAFAFFDEDKYKNELKNGRPRSGETRAEFEGRVAKDSFDEAKGFQRARDVASVMNKALENAHDEGAYLDNLKKELANGNDALRNEDARSPFYSALRNTPSFKDRNGGNHDPSKMKAVIYSKHFWSGQDRSGSSDKRKYGDPEAFRPDRGTGLVDMSRDRNIPRSPTSPGESFVNFDYGWFGAQTEADADKTVWTHGNHYHAPNGSLGAMHVYESKFRNWSDGYSDFDRGAYVVTFVPKSWNTAPDKVKQGWP
With B5, in the test with hGH mutant Q141N (human), the Gln 40 vs Gln 141 (normalized), Gln 40 share (normalized ratio) worked out at 11 and the HPLC peak area of remaining hGH-Q141N (area (arbitrary units)) stood at 1160. In the test with hGH mutant Q40N (human), the Gln 40 vs Gln 141 (normalized), Gln 141 share (normalized ratio) amounted to 89 and the HPLC peak area of remaining hGH-Q40N (area (arbitrary units)) stood at 375.
